Reference: the RNAGym collection of RNA variant scans (doi:10.7554/elife.80360)

B1: HDV Ribozyme (parent)
chain: GGCCGGCAUGGUCCCAGCCUCCUCGCUGGCGCCGGCUGGGCAACAUUCCGAGGGGACCGUCCCCUCGGUAAUGGCGAAUGGGACCCA

Variants of: B1
Experiment: self-cleavage, relative activity (ratio to wild type); higher = more cleavage; co-transcriptional

Point of comparison: GGCCAGCAUGUUCCCAGCCUCCUCGCUGGCGCCGGCUGGGCAACAUUCCGAGGGGACCGUCCCCUCGGUAAUGGCGAAUGGGACCCA [G5A G11U], self-cleavage 0.0665. Against it:
- GGCCAGCAUGGUCCCAGCCUCCUCGCUGGCGCCGGCUGGGCAACAUUCCGAGGGGACCGGCCCCUCGGUAAUGGCGAAUGGGACCCA [G5A U60G] — lower, 0
- GGCCAGCAUGGUCCCAGCCUCCUCGCUGGCGCCGGCUGGGCAACAUUCCGAGGGGACCGACCCCUCGGUAAUGGCGAAUGGGACCCA [G5A U60A] — higher, 0.125
- GGCCAGCAUGGUCCCAGGCUCCUCGCUGGCGCCGGCUGGGCAACAUUCCGAGGGGACCGUCCCCUCGGUAAUGGCGAAUGGGACCCA [G5A C18G] — lower, 0
- GGCCAGCAUGGUCCCAGUCUCCUCGCUGGCGCCGGCUGGGCAACAUUCCGAGGGGACCGUCCCCUCGGUAAUGGCGAAUGGGACCCA [G5A C18U] — lower, 0
- GGCCAGCAUGGUCCCAGCCUCCUCGCUGGCGCCGGCUGGGCAAAAUUCCGAGGGGACCGUCCCCUCGGUAAUGGCGAAUGGGACCCA [G5A C44A] — lower, 0
- GGCCAGCAUGGUCCCAGCCUCCUCGCUGGCGCCGGCUGGGCAAUAUUCCGAGGGGACCGUCCCCUCGGUAAUGGCGAAUGGGACCCA [G5A C44U] — lower, 0.0627
- GGCCAGCAUGGUCCCAGCCUCCUCGCUGGCGCCGGCUGGGCAACAUUCCAAGGGGACCGUCCCCUCGGUAAUGGCGAAUGGGACCCA [G5A G50A] — higher, 0.192
- GGCCAGCAUGGUCCCAGCCUCCUCGCUGGCGCCGGCUGGGCAACAUUCCGAGGGGACCGUCCCCCCGGUAAUGGCGAAUGGGACCCA [G5A U65C] — higher, 0.308
- GGCCAGCACGGUCCCAGCCUCCUCGCUGGCGCCGGCUGGGCAACAUUCCGAGGGGACCGUCCCCUCGGUAAUGGCGAAUGGGACCCA [G5A U9C] — lower, 0.0639
- GGCCAGCAUGGUCCCAGCCUCCUCGCUGGCGCCGGCUGGGCAACAUUCCGAGGGGACCGUCCCCUAGGUAAUGGCGAAUGGGACCCA [G5A C66A] — higher, 0.173
- GGCCAGCAUGGUCCCAGCCUCCUCGCUGGCGCCGGCUGGGCAACAUUCCGAGGAGACCGUCCCCUCGGUAAUGGCGAAUGGGACCCA [G5A G54A] — higher, 0.177
- GGCCAGCAUGGUCCCAGCCUCCUCGCUGGCGCCGGCUGGGCAACAUUCCGAGGGGACCGUCCCCUCUGUAAUGGCGAAUGGGACCCA [G5A G67U] — higher, 0.17
- GGCCAGCAUGGUCCCAGCCUCCUCGCUGGCGCCGGCUGGGCAACAUUCCGAGGGGACCGUCCCCUCAGUAAUGGCGAAUGGGACCCA [G5A G67A] — higher, 0.125
- GGCCAGCAUGGUCCCAGCCUCCUCGCUGGCGCCGGCUGGGCAACAUUCCGAGGGGACCUUCCCCUCGGUAAUGGCGAAUGGGACCCA [G5A G59U] — higher, 0.222
- GGCCAGCAUGGUCCCAGCCUCCUCGCUGGCGCCGGCUGGGCAACAUUCCGAGGGGACCCUCCCCUCGGUAAUGGCGAAUGGGACCCA [G5A G59C] — higher, 0.219
- GGCCAGCAUGGUCCCAGCCUCCUCGCUGGCGCCGGCUGGGCAACAUACCGAGGGGACCGUCCCCUCGGUAAUGGCGAAUGGGACCCA [G5A U47A] — higher, 0.208
- GGCCAGCAUGGUCCCAGCCUCCUCGCUGGCUCCGGCUGGGCAACAUUCCGAGGGGACCGUCCCCUCGGUAAUGGCGAAUGGGACCCA [G5A G31U] — lower, 0.0332
- GGCCAGCAUGGUCCGAGCCUCCUCGCUGGCGCCGGCUGGGCAACAUUCCGAGGGGACCGUCCCCUCGGUAAUGGCGAAUGGGACCCA [G5A C15G] — higher, 0.151
- GGCCAGCAUGGUCCUAGCCUCCUCGCUGGCGCCGGCUGGGCAACAUUCCGAGGGGACCGUCCCCUCGGUAAUGGCGAAUGGGACCCA [G5A C15U] — lower, 0.0475
- GGCCAGCAUGGUCCCAGCCUCAUCGCUGGCGCCGGCUGGGCAACAUUCCGAGGGGACCGUCCCCUCGGUAAUGGCGAAUGGGACCCA [G5A C22A] — lower, 0.0426
- GGCCAGCAUGGUCCCAGCCUCCUCGCUGGCGCCGGCUGGGCAACAUUCCGAGGGGACCGUCCCCUCGGUAAUGGCGAAUGAGACCCA [G5A G81A] — higher, 0.0978
- GGCCAGCAUGGUCCCAGCCUCCUCGCUGGCGCCGGCUGGGCAACAUUCCGAGGGGACCGUCCCCUCGAUAAUGGCGAAUGGGACCCA [G5A G68A] — higher, 0.164
- GGCCAGCAUGGUCCCAGCCUCCUCGCUGGCGCCGGCUGGGCAACAUUCCGAGGGGACCGUCCCCUCGCUAAUGGCGAAUGGGACCCA [G5A G68C] — higher, 0.17
- GGCCAGCAUGGUCCCAGCCUCCUAGCUGGCGCCGGCUGGGCAACAUUCCGAGGGGACCGUCCCCUCGGUAAUGGCGAAUGGGACCCA [G5A C24A] — higher, 0.0978
- GGCCAGCAUGGUCCCAGCCUCCUCGCUGGCGCCGGCUUGGCAACAUUCCGAGGGGACCGUCCCCUCGGUAAUGGCGAAUGGGACCCA [G5A G38U] — higher, 0.0804
- GGCCAGCAUGGUCCCAGCCUCCUCGCUGGCGCCGGCUAGGCAACAUUCCGAGGGGACCGUCCCCUCGGUAAUGGCGAAUGGGACCCA [G5A G38A] — higher, 0.147
- GGCCAGCAUGGUCCCAGCCUCCUCGCUGGCGCCGGCUGGGCAACAUUCCGAGGGUACCGUCCCCUCGGUAAUGGCGAAUGGGACCCA [G5A G55U] — higher, 0.122
- GGCCAGCAUGGUCCCAGCCUCCUCGCUGGCGCCGGCUGGGUAACAUUCCGAGGGGACCGUCCCCUCGGUAAUGGCGAAUGGGACCCA [G5A C41U] — higher, 0.277
- GGCCAGCAUGGUCCCAGCCGCCUCGCUGGCGCCGGCUGGGCAACAUUCCGAGGGGACCGUCCCCUCGGUAAUGGCGAAUGGGACCCA [G5A U20G] — higher, 0.185
- GGCCAGCAUGGUCCCAGCCACCUCGCUGGCGCCGGCUGGGCAACAUUCCGAGGGGACCGUCCCCUCGGUAAUGGCGAAUGGGACCCA [G5A U20A] — lower, 0.0437
- GGCCAGCAUCGUCCCAGCCUCCUCGCUGGCGCCGGCUGGGCAACAUUCCGAGGGGACCGUCCCCUCGGUAAUGGCGAAUGGGACCCA [G5A G10C] — higher, 0.308
- GGCCAGCAUAGUCCCAGCCUCCUCGCUGGCGCCGGCUGGGCAACAUUCCGAGGGGACCGUCCCCUCGGUAAUGGCGAAUGGGACCCA [G5A G10A] — higher, 0.203
- GGCCAGCAUGGUCCCAGCCUCCUCGCUGGCGCCGGCUGGGCAACAUUCCGAAGGGACCGUCCCCUCGGUAAUGGCGAAUGGGACCCA [G5A G52A] — higher, 0.227
- GGCCAGCAUGGUCCCAGCCUCCUCGCUGGCGCCGGCUGGGCAACAUUCCGACGGGACCGUCCCCUCGGUAAUGGCGAAUGGGACCCA [G5A G52C] — higher, 0.253
- GGCCAGCAUGGUCCCAGCCUCCUCGCUGGCGCCGGCUGGCCAACAUUCCGAGGGGACCGUCCCCUCGGUAAUGGCGAAUGGGACCCA [G5A G40C] — higher, 0.136
- GGCCAGCAUGGUCCCAGCCUCCUCGCUGGCGCCGGCUGGGCAACAUUCCGAGGGGACCGUCCCCUCGGUAAUGGCGAAUGGGACACA [G5A C85A] — higher, 0.113
- GGCCAGCAUGGUCCCAGCCUCCUCGCUGGCGCCGGCCGGGCAACAUUCCGAGGGGACCGUCCCCUCGGUAAUGGCGAAUGGGACCCA [G5A U37C] — higher, 0.764
- GGCCAGCAUGGUCCCAGCCUCCUCGCUGGCGCCGGCUGGGCAACAUUCCGAGUGGACCGUCCCCUCGGUAAUGGCGAAUGGGACCCA [G5A G53U] — higher, 0.309
- GGCCAGCAUGGUCCCAGCCUCCUCGCUGGCGCCGGCUGGGCAACAUUCCGAGGGGACCGUCCCCUCGGUAAUGCCGAAUGGGACCCA [G5A G74C] — higher, 0.0923
- GGCCAGCAUGGUCCCAGCCUCCUCCCUGGCGCCGGCUGGGCAACAUUCCGAGGGGACCGUCCCCUCGGUAAUGGCGAAUGGGACCCA [G5A G25C] — higher, 0.0923
- GGCCAGCAUGGUCCCAGCCUCCUCUCUGGCGCCGGCUGGGCAACAUUCCGAGGGGACCGUCCCCUCGGUAAUGGCGAAUGGGACCCA [G5A G25U] — lower, 0.0339
- GGCCAGCAUGGUCCCACCCUCCUCGCUGGCGCCGGCUGGGCAACAUUCCGAGGGGACCGUCCCCUCGGUAAUGGCGAAUGGGACCCA [G5A G17C] — lower, 0.0594
- GGCCAGCAUGGUCGCAGCCUCCUCGCUGGCGCCGGCUGGGCAACAUUCCGAGGGGACCGUCCCCUCGGUAAUGGCGAAUGGGACCCA [G5A C14G] — lower, 0.0639
- GGCCAGCAUGGUCCCAGCGUCCUCGCUGGCGCCGGCUGGGCAACAUUCCGAGGGGACCGUCCCCUCGGUAAUGGCGAAUGGGACCCA [G5A C19G] — higher, 0.0898
- GGCCAGCAUGGUCCCAGCCUCCUCGCUGGCGCCGGCUGGGCAACAUUCUGAGGGGACCGUCCCCUCGGUAAUGGCGAAUGGGACCCA [G5A C49U] — higher, 0.18
- GGCCAGCAUGGUCCCAGCCUCCUCGCUGGCGCCGGCUGGGCAACAUUCAGAGGGGACCGUCCCCUCGGUAAUGGCGAAUGGGACCCA [G5A C49A] — higher, 0.302
- GGCCAGCAUGGUCCCAGCCUCCUCGCUCGCGCCGGCUGGGCAACAUUCCGAGGGGACCGUCCCCUCGGUAAUGGCGAAUGGGACCCA [G5A G28C] — higher, 0.104
- GGCCAGCAUGGUCCCAGCCUCCUCGCUAGCGCCGGCUGGGCAACAUUCCGAGGGGACCGUCCCCUCGGUAAUGGCGAAUGGGACCCA [G5A G28A] — lower, 0.0378
- GGCCAGCAUGGUCCCAGCCUCCUCGCUGGCGCCGUCUGGGCAACAUUCCGAGGGGACCGUCCCCUCGGUAAUGGCGAAUGGGACCCA [G5A G35U] — lower, 0.0396
- GGCCAGCAUGGUCCCAGCCUCCUCGCUGGCGCCGGCUGGGCAACAUUCCGAGGGGACCGUCCACUCGGUAAUGGCGAAUGGGACCCA [G5A C63A] — higher, 0.277
- GGCCAGCAUGGUCCCAGCCUCCUCGCUGGCGCCGGCUGGGCAACAUUCCGAGGGGACCGUCCGCUCGGUAAUGGCGAAUGGGACCCA [G5A C63G] — higher, 0.0755
- GGCCAACAUGGUCCCAGCCUCCUCGCUGGCGCCGGCUGGGCAACAUUCCGAGGGGACCGUCCCCUCGGUAAUGGCGAAUGGGACCCA [G5A G6A] — lower, 0
- GGCCAGCAUGGUCCCAGCCUCCUCGCUGGCGCCGGCUGGGCAACAUUCCGAGGGGACCGUCCCCUCGGUAAUGGCGAAUGGCACCCA [G5A G82C] — lower, 0
- GGCCAGCAUGGUCCCAGCCUCCUCGCUGGCGCCGGCUGGGCAACAUUCCGAGGGGACCGUCCCCUCGGUAAUGGCGAAUGGGAGCCA [G5A C84G] — higher, 0.0875
- GGCCAGCAUGGUCCCAGCCUCCGCGCUGGCGCCGGCUGGGCAACAUUCCGAGGGGACCGUCCCCUCGGUAAUGGCGAAUGGGACCCA [G5A U23G] — higher, 0.0923
- GGCCAGCAUGGUCCCAGCCUGCUCGCUGGCGCCGGCUGGGCAACAUUCCGAGGGGACCGUCCCCUCGGUAAUGGCGAAUGGGACCCA [G5A C21G] — higher, 0.0811
- GGCCAGCAUGGUCCCAGCCUUCUCGCUGGCGCCGGCUGGGCAACAUUCCGAGGGGACCGUCCCCUCGGUAAUGGCGAAUGGGACCCA [G5A C21U] — higher, 0.163
- GGCCAGCAUGGUCCCAGCCUCCUCGCUGGCGCCGGCUGGGCAACAUUGCGAGGGGACCGUCCCCUCGGUAAUGGCGAAUGGGACCCA [G5A C48G] — higher, 0.101
- GGCCAGCAUGGUCCCAGCCUCCUCGCUGGCGCCGGCUGGGCAACAUUACGAGGGGACCGUCCCCUCGGUAAUGGCGAAUGGGACCCA [G5A C48A] — lower, 0.0437
- GGCCAGCAUGGUCCCAGCCUCCUCGCUGGCGCCGGCUGGGCAACAUUCCGAGGGGACCGUCCCCUCGGUAAUGGCGAAGGGGACCCA [G5A U79G] — higher, 0.0923
- GGCCCGCAUGGUCCCAGCCUCCUCGCUGGCGCCGGCUGGGCAACAUUCCGAGGGGACCGUCCCCUCGGUAAUGGCGAAUGGGACCCA [G5C] — higher, 0.213
- GGCCAGCAUGGUCCCAGCCUCCUCGCUGGCGCCGGCUGGGCAACAUUCCGAGGGGACCGUCCCCUCGGUAAUGGCGAAUUGGACCCA [G5A G80U] — higher, 0.0971
- GGCCAGCAUGGUCCCAGCCUCCUCGCUGGCGCCGGCUGGGCAACAUUCCGAGGGGACCGUCCCCUCGGUAAUGGCGAAUAGGACCCA [G5A G80A] — higher, 0.143
